{
  "source": "paper PMC10148134",
  "key": {"[1]": {"target": "toad B. maxima serum albumin (Bm-SA) (Bombina maxima) (UniProt Q3T478)", "sequence (Q3T478 23-607)": "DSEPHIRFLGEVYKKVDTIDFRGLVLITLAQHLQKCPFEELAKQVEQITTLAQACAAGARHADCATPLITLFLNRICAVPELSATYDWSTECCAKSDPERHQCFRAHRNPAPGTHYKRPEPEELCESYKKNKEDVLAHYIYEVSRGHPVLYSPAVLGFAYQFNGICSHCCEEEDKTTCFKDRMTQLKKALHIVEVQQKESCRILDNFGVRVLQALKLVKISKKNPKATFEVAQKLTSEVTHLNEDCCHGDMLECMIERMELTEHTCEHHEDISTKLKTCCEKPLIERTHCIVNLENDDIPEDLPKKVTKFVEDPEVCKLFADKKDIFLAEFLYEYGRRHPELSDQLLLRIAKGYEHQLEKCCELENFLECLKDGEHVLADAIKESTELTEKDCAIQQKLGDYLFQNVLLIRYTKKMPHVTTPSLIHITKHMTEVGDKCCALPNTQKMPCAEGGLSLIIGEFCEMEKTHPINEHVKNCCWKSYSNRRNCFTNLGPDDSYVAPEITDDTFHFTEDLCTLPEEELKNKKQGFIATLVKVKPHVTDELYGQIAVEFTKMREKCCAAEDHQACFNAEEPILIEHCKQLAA", "test": "BLI; 10 μg/mL proteins (OVA, Bm-SA) coupled on AR2G or SA sensors; various concentrations of βγ-CAT as analyte, PBS as buffer; association 300 s, dissociation 180 s; Octet R2; 1:1 model"}, "[2]": {"target": "ovalbumin (OVA) (UniProt P01012)", "sequence (P01012 whole entry)": "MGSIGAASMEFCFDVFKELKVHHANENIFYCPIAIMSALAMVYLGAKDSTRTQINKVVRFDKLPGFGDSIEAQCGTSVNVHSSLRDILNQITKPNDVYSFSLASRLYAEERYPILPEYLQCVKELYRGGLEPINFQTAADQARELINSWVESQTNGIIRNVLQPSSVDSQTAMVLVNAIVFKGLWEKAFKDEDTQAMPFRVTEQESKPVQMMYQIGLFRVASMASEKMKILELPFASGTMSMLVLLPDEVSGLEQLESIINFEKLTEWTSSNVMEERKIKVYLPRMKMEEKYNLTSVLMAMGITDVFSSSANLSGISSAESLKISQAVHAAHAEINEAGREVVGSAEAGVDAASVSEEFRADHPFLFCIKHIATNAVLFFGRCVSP", "test": "BLI; 10 μg/mL proteins (OVA, Bm-SA) coupled on AR2G or SA sensors; various concentrations of βγ-CAT as analyte, PBS as buffer; association 300 s, dissociation 180 s; Octet R2; 1:1 model"}},
  "data": [
    {"substance": "βγ-CAT, pore-forming protein (PFP) and trefoil factor complex of BmALP1 and BmTFF3 from toad Bombina maxima", "values": [
      {"measurement": "Kd", "setting": "[1]", "value": 24.7, "unit": "nM"},
      {"measurement": "Kd", "setting": "[2]", "value": 23.3, "unit": "nM"}
    ]}
  ]
}
